From publication PMC3941021 (Nature structural & molecular biology, 2013)
Like-named read-outs stand apart in the source and are kept apart here.

What was measured:
Assay in all cases: crystal structure
[1] = biological target: lysine-methylated EphA4 ectodomain (EphA4_(ecto)), human (human, UniProt P54764 20-547, lysine-methylated)
[2] = biological target: T1, EphA4 ectodomain (EphA4_(ecto)), human (human, UniProt P54764 20-547)
[3] = biological target: T1, EphA4 ectodomain (EphA4_(ecto)), human; remark: listed apart in the source

T1 sequence (P54764 20-547): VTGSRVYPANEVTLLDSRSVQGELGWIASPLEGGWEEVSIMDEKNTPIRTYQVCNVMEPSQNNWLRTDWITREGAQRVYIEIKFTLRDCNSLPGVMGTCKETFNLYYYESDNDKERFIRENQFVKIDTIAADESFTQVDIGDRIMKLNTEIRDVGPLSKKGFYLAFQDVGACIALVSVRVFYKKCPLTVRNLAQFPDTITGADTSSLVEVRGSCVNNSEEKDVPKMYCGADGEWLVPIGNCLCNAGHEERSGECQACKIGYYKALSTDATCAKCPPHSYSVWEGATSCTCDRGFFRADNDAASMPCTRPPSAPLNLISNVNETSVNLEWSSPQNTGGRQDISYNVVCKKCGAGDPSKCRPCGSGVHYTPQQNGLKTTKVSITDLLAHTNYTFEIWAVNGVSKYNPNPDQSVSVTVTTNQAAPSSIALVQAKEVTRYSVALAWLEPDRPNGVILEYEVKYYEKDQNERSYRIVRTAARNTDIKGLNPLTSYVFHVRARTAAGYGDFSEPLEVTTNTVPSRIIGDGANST
Chain of lysine-methylated EphA4 ectodomain (EphA4_(ecto)), human (P54764 20-547): as above

B1: ephrinA5 receptor-binding domain (RBD), human, of the lysine-methylated complex sample (domain or fragment)
chain: AVADRYAVYWNSSNPRFQRGDYHIDVCINDYLDVFCPHYEDSVPEDKTERYVLYMVNFDGYSACDHTSKGFKRWECNRPHSPNGPLKFSEKFQLFTPFSLGFEFRPGREYFYISSAIPDNGRRSCLKLKVFVRPTNSCMK
modifications: lysine-methylated (the paper calls the EphA4_(ecto)-ephrinA5 RBD complex sample lysine-methylated)
- binding result [1]: binds

B2: ephrinA5 receptor-binding domain (RBD), human (domain or fragment)
chain: AVADRYAVYWNSSNPRFQRGDYHIDVCINDYLDVFCPHYEDSVPEDKTERYVLYMVNFDGYSACDHTSKGFKRWECNRPHSPNGPLKFSEKFQLFTPFSLGFEFRPGREYFYISSAIPDNGRRSCLKLKVFVRPTNSCMK
- binding result [2]: binds

B3: ephrinB3 receptor-binding domain (RBD), human (domain or fragment)
chain: GLSLEPVYWNSANKRFQAEGGYVLYPQIGDRLDLLCPRARPPGPHSSPNYEFYKLYLVGGAQGRRCEAPPAPNLLLTCDRPDLDLRFTIKFQEYSPNLWGHEFRSHHDYYIIATSDGTREGLESLQGGVCLTRGMKVLLRVGQ
- binding result [3]: binds
